T1: human MAdCAM protein (human, UniProt Q13477 19-317, limits assumed)
T1 construct: also called soluble monomeric human MAdCAM; recombinant human MAdCAM
T1 sequence (looked up): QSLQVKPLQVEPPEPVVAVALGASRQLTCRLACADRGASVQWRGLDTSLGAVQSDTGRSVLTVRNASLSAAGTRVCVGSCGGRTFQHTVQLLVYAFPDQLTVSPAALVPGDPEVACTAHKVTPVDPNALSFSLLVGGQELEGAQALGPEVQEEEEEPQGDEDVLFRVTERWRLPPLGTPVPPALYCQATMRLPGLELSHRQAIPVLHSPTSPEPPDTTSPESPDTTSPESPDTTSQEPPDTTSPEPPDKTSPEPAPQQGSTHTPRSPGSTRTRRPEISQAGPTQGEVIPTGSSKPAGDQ

T2: recombinant mouse MAdCAM-1 (mouse, UniProt Q61826 22-364, limits assumed)
T2 construct: also called mMAdCAM-1
T2 sequence (looked up): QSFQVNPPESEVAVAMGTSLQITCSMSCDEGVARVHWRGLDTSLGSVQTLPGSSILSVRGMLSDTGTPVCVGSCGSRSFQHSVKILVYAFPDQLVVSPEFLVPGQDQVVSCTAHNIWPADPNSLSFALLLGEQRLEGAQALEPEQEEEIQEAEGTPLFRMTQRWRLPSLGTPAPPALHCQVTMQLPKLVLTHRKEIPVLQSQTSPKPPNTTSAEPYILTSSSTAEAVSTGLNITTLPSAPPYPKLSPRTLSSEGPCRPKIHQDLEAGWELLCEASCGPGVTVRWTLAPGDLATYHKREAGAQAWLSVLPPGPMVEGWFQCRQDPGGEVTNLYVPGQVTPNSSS

T3: human MAdCAM expressed on cells (human, UniProt Q13477 19-382)
T3 construct: whole, on cells
T3 sequence (looked up): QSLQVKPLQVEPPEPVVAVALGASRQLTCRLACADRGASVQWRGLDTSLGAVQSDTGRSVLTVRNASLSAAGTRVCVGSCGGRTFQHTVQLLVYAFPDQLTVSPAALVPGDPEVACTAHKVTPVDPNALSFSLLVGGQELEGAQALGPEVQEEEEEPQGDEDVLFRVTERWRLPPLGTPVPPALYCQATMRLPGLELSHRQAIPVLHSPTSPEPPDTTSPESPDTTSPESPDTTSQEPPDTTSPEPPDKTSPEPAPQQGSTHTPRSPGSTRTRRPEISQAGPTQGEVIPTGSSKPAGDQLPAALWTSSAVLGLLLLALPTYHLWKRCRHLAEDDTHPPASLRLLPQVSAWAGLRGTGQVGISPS

T4: mouse MAdCAM expressed on cells (mouse, UniProt Q61826 22-405)
T4 construct: whole, on cells
T4 sequence (looked up): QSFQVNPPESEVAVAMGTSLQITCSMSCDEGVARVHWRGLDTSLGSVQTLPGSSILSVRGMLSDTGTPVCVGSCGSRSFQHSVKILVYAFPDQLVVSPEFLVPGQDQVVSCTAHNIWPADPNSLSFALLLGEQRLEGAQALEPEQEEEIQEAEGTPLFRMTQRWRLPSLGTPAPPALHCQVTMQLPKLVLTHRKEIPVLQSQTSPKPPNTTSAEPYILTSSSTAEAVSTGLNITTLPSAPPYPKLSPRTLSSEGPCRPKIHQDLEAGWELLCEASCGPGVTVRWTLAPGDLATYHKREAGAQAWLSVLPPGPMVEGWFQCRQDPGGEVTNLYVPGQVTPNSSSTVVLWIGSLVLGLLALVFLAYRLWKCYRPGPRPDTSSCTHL

B1: MAdCAM Antibody Table 2 clone 11 (antibody, V domains shown)
VH: EVQLLESGGGLVQPGGSLRLSCAASGFTFSDYYMNWVRQAPGKGLEWVSVIGESGGSTYYADSVKGRFTISRDNSKNTLYLQMNSLRAEDTAVYYCAADPVSRWPKHGGGDYWGQGTLVTVSS
VL: DIQMTQSPSSLSASVGDRVTITCRASQGISSSLAWYQQKPGKAPKLLIYAASTLQSGVPSRFSGSGSGTDFTLTISSLQPEDFATYYCQQSYSTPWTFGQGTKVEIK
notes: IgG format
B2: MAdCAM Antibody Table 2 clone 82 (antibody, V domains shown)
VH: QVQLVQSGAEVKKPGASVKVSCKASGYTFTRHWIHWVRQAPGQGLEWMGWINVKTGGAGYAQKFQGRVTMTRDTSTSTVYMELSSLRSEDTAVYYCARESSGWYGTDVWGQGTTVTVSS
VL: B1 VL with V19A, G28S, S31N, S32Y, T53S, Y92N, T94F, W96L, Q100G
notes: IgG format
B3: MAdCAM Antibody Table 2 clone 63 (antibody, V domains shown)
VH: EVQLLESGGGLVQPGGSLRLSCAASGFTFNNYGMNWVRQAPGKGLEWVSRINSDGSSTSYADSVKGRFTISRDNSKNTLYLQMNSLRAEDTAVYYCARGAYYYYYMDVWGQGTLVTVSS
VL: EIVMTQSPATLSVSPGERATLSCRASQSVSGSYLAWYQQKPGQAPRLLIYATSSRASGIPARFSGSGSGTEFTLTISSLQSEDFAVYYCQQYYSGLTFGQGTKVEIK
notes: IgG format
B4: MAdCAM Antibody Table 2 clone 83 (antibody, V domains shown)
VH: EVQLLESGGGLVQPGGSLRLSCAASGFTFSSYWMHWVRQAPGKGLEWVAAISYDGKYKDYEDSVKGRFTISRDNSKNTLYLQMNSLRAEDTAVYYCARENKQWLASFDYWGQGTLVTVSS
VL: DIQMTQSPSSLSASVGDRVTITCQASQDISNFVNWYQQKPGKAPKLLIYAANLRSGVPSRFSGSGSGTDFTLTISSLQPEDFATYYCQQANSFPVTFGPGTKVDIK
notes: IgG format
B5: MAdCAM Antibody Table 2 clone 78 (antibody, V domains shown)
VH: QVQLVQSGAEVKKPGSSVKVSCKASGGTFSSYAISWVRQAPGQGLEWMGWMEPHTGNTRYAQKFQGRVTITADESTSTAYMELSSLRSEDTAVYYCAKGGFSWFDPWGQGTLVTVSS
VL: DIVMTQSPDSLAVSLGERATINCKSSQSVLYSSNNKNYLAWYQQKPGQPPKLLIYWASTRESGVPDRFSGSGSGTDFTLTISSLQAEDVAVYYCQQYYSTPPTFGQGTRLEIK
notes: IgG format
B6: MAdCAM Antibody Table 2 clone 76 (antibody, V domains shown)
VH: EVQLLESGGGLVQPGGSLRLSCAASGFTFDDYTMHWVRQAPGKGLEWVSDISGSGGSTYYADSVKGRFTISRDNSKNTLYLQMNSLRAEDTAVYYCAKDVVVAGTPLHFDYWGQGTLVTVSS
VL: DIQMTQSPSSLSASVGDRVTITCQASQDISNYLNWYQQKPGKAPKLLIYAASYLQSGVPSRFSGSGSGTDFTLTISSLQPEDFATYYCQQAHNYPITFGQGTRLEIK
notes: IgG format
B7: MAdCAM Antibody Table 2 clone 84 (antibody, V domains shown)
VH: QVQLVQSGAEVKKPGASVKVSCKASGGTFSSSAISWVRQAPGQGLEWMGWISAYNGYTNYAQKFQGRVTMTRDTSTSTVYMELSSLRSEDTAVYYCASRVHSGGSYPDDYWGQGTLVTVSS
VL: B6 VL with Q27E, D28H, S30Y, Y53S, A91T, H92D, N93S, Y94I, R103K, L104V
notes: IgG format
B8: MAdCAM Antibody Table 2 clone 7 (antibody, V domains shown)
VH: EVQLLESGGGLVQPGGSLRLSCAASGFTFSDYQMSWVRQAPGKGLEWVAIISHADGGFKDYADSVKGRFTISRDNSKNTLYLQMNSLRAEDTAVYYCAKPYSSGWSAVYYFDYWGQGTLVTVSS
VL: B1 VL with Q27R, S30T, S31N, S32D, A34G, S91A, T94F
notes: IgG format
B9: MAdCAM Antibody Table 2 clone 24 (antibody, V domains shown)
VH: EVQLVESGGGLVKPGGSLRLSCAASGFTFSSYWMSWVRQAPGKGLEWVSRISSDGRITTYAAPVKGRFTISRDDSKNTLYLQMNSLKTEDTAVYYCARGTSYCTGGVCDIDYWGQGTLVTVSS
VL: DIQMTQSPSSLSASVGDRVTITCRASQSIGRNLNWYQQKPGKAPKLLIYSASNLQSGVPSRFSGSGSGTDFTLTISSLQPEDFATYYCQQSYSIPLTFGPGTKVDIK
notes: IgG format
B10: MAdCAM Antibody Table 2 clone 8 (antibody, V domains shown)
VH: QVQLVQSGAEVKKPGASVKVSCKASGYTFTGYHIHWVRQAPGQGLEWMGIINPSGGSTIYAQKFQGRVTMTRDTSTSTVYMELSSLRSEDTAVYYCAKDWSSWYLGPFDYWGQGTLVTVSS
VL: B1 VL with G28N, A34N, T53S, S93T, W96Y
notes: IgG format
B11: MAdCAM Antibody Table 2 clone 6 (antibody, V domains shown)
VH: EVQLLESGGGLVQPGGSLRLSCAASGFTFNNYAFHWVRQAPGKGLEWVSRINSYGTSTTYADSVKGRFTISRDNSKNTLYLQMNSLRAEDTAVYYCAREGPVAGYWYFDLWGQGTLVTVSS
VL: B1 VL with G28I, S30G, S31T, S32N, A50G, T53S, S93R, T94L, W96F
notes: IgG format
B12: MAdCAM Antibody Table 2 clone 28 (antibody, V domains shown)
VH: EVQLLESGGGLVQPGGSLRLSCAASGFTFSSYAMSWVRQAPGKGLEWVSYISSSSTYTNYADSVKGRFTISRDNSKNTLYLQMNSLRAEDTAVYYCARANSSSWYDWYFDLWGQGTLVTVSS
VL: not shown
notes: IgG format
B13: MAdCAM Antibody Table 2 clone 29 (antibody, V domains shown)
VH: B12 VH with A33Q
VL: not shown
notes: IgG format
B14: MAdCAM Antibody Table 2 clone 14 (antibody, V domains shown)
VH: QVQLVQSGAEVKKPGSSVKVSCKASGYTFTNYYMHWVRQAPGQGLEWMGGIIPIVDGVKYAQKFQGRVTITADESTSTAYMELSSLRSEDTAVYYCAKGQFTGNYYYGMDYWGQGTLVTVSS
VL: DIQMTQSPSSLSASVGDRVTITCQANQDISNYLNWYQQKPGKAPKLLIYRASKLEAGVPSRFSGSGSGTDFTLTISSLQPEDFATYYCQQSSEIPYSFGQGTKVEIK
notes: IgG format

Data on 14 molecules can be found in patent publication US20230235004A1 (published 2023).

Changes are numbered by the printed parent chain.

In the first assay the target is T1, human MAdCAM protein. In words: Octet. Background: Biolayer interferometry detects binding as a change in optical thickness at a sensor tip.
For B1, the binding result is recorded as “binds”.
For B2, the binding result was “binds”.
On to B3, for which the binding result is given as “binds”.
On to B4, for which the binding result is recorded as “binds”.
The same measure, in the same setting: under B5 stands “binds”; under B6, “binds”; under B7, “binds”.

In the next assay the target is T2, recombinant mouse MAdCAM-1. In words: Octet.
In the case of B8, the binding result is listed as “binds”.
The same measure, in the same setting: then B1, with “binds”; and B9, with “no binding”.
On the same count and under the same terms, under B10 stands “binds”.
Still for that read-out and setting: under B11 stands “no binding”.
For B12, the binding result is “no binding”.
Still for that read-out and setting: under B13 stands “no binding”; under B14, “no binding”.

Another assay addresses T3, human MAdCAM expressed on cells. The assay can be described thus: cell binding.
Take B8: the binding result is listed as “binds”.
Regarding B1, the binding result is reported as “binds”.
On to B9, for which the binding result is given as “binds”.
Same read-out and setting: then B10, with “binds”; and B2, with “binds”; and B3, with “binds”.
Same read-out and setting: then B4, with “binds”; and B5, with “binds”.
On the same count and under the same terms, under B6 stands “binds”.
Consider B7, for which the binding result is “binds”.

The target of the next assay is T4, mouse MAdCAM expressed on cells. The assay can be described thus: cell binding.
Consider B8, for which the binding result was “binds”.
Regarding B1, the binding result was “binds”.
The same measure, in the same setting: under B9 stands “no binding”; under B10, “binds”.
On the same count and under the same terms, then B2, with “binds”; and B11, with “no binding”; and B3, with “no binding”.
As for B4, the binding result is recorded as “binds”.
Same read-out and setting: then B12, with “no binding”; and B13, with “no binding”; and B5, with “binds”.
Still for that read-out and setting: under B6 stands “binds”.
Still for that read-out and setting: then B7, with “binds”; and B14, with “no binding”.
